The values that follow are results of earlier work, collected in PMC3476528.

In general, Kd refers to the equilibrium constant for the complex coming apart.

The target in this data set is histone H3 (Homo sapiens) (UniProt P68431).

Sequence of CHD4 PHD2 (Q14839 449-496): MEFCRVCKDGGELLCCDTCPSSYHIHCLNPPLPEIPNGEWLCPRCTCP

For CHD4 PHD2 (from UniProt Q14839), the Kd is 18 µM.
